Laboratory results as given in PMC2110644.
Read-outs that look alike come from different tables or passages of the source.

Assays:
Experiment in all cases: co-sedimentation
[1] = biological target: actin (mol wt = 43,000), platelet (human (endogenous in platelets)) (UniProt P60709)
[2] = biological target: actin (mol wt = 43,000), platelet (human (endogenous in platelets)) (UniProt P60709); remark: listed apart in the source
[3] = biological target: actin (mol wt = 43,000), platelet (human (endogenous in platelets)) (UniProt P60709); remark: listed apart in the source
[4] = biological target: actin (mol wt = 43,000), platelet (human (endogenous in platelets)) (UniProt P60709); remark: listed apart in the source

Sequence of platelet membrane glycoprotein IIb (receptor) (P08514 32-1039): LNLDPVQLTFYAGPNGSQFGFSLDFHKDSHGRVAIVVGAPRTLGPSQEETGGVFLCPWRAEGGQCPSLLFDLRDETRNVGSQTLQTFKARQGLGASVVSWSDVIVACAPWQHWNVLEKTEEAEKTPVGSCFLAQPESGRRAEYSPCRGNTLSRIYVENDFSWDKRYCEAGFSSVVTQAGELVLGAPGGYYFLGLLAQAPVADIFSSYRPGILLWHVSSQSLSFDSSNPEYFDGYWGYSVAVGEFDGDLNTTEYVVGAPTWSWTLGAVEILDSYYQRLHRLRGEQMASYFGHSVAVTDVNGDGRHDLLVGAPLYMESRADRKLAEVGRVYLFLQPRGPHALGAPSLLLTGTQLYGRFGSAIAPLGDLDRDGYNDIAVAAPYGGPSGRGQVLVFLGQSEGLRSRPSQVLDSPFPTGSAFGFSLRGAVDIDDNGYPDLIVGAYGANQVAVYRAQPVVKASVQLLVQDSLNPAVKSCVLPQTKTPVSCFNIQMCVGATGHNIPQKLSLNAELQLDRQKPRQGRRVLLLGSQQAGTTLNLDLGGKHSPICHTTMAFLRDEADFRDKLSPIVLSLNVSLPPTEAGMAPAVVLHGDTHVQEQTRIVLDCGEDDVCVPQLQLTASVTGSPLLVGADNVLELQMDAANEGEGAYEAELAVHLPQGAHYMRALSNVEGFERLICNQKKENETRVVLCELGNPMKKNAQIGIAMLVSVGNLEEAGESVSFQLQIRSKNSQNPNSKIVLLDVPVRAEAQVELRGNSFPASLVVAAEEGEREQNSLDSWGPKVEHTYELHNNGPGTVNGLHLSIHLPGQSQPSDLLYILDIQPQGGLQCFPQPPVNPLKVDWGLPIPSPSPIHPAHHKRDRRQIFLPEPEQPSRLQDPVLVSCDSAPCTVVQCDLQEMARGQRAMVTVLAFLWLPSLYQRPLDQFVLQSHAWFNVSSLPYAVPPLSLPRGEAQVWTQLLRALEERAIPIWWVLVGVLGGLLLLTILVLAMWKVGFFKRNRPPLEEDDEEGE
Sequence of platelet membrane glycoprotein III (P05106 27-788): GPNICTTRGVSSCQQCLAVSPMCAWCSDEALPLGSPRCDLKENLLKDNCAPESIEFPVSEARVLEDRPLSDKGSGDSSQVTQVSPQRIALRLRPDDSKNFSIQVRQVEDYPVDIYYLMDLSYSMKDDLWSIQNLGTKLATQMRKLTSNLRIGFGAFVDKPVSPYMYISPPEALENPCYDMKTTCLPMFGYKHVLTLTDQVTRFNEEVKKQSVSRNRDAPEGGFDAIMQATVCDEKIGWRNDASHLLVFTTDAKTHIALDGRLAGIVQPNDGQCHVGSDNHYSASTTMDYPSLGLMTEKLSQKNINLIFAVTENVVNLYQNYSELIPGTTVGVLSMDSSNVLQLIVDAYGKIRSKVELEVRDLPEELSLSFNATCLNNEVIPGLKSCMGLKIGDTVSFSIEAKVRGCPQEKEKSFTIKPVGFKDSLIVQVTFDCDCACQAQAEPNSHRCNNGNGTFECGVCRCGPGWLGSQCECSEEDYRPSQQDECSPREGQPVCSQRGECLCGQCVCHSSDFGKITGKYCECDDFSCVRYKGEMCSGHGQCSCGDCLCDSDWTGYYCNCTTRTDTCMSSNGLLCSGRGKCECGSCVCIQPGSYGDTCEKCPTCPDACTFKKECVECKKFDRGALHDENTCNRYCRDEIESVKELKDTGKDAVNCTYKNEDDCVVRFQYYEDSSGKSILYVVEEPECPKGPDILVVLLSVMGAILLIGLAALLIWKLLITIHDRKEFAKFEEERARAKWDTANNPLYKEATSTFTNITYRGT

percent of the protein in the Triton residue [1] | percent of the protein in the Triton residue [2] | percent of the glycoprotein in the Triton residue [1] | percent of the glycoprotein in the Triton residue [3] | percent of the glycoprotein in the Triton residue [2] | percent of the glycoprotein in the Triton residue [4] | Substance
34.5% | 55.2% |  |  |  |  | 255,000 protein (actin-binding protein), platelet (from UniProt P21333 1-2647) (natural protein)
 |  | 3.4% | 2.4% | 14.3% |  | platelet membrane glycoprotein III (from UniProt P05106 27-788) (receptor)
 |  | 7.2% | 5.4% | 26.1% | 3.7% | platelet membrane glycoprotein IIb (receptor)
